The source of these data is patent US20030077679.

For series [1], the target named is T1, human EID-1 with an N-terminal V5-HIS6 tag (in p423CDN).
T1 chain: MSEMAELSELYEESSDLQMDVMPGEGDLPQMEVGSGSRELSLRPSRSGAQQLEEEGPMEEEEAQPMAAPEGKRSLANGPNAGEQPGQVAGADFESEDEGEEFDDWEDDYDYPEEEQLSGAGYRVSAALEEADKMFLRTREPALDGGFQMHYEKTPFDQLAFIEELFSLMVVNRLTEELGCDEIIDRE

Series [2] has as its target T2, human EID-1 (SEQ ID NO:4) expressed in E. coli as an N-terminal HIS6 fusion.
T2 chain: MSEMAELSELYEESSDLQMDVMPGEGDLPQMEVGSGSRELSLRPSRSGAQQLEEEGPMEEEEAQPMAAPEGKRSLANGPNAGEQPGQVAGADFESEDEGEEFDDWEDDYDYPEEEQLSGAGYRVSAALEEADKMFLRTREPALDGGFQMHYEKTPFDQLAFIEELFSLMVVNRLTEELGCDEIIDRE

B1: human DYRK3 catalytic domain (amino acids 142-526 of SEQ ID NO:2) with an N-terminal GST-tag and C-terminal HIS6-tag (protein)
chain: PEQALKQYKHHLTAYEKLEIINYPEIYFVGPNAKKRHGVIGGPNNGGYDDADGAYIHVPRDHLAYRYEVLKIIGKGSFGQVARVYDHKLRQYVALKMVRNEKRFHRQAAEEIRILEHLKKQDKTGSMNVIHMLESFTFRNHVCMAFELLSIDLYELIKKNKFQGFSVQLVRKFAQSILQSLDALHKNKIIHCDLKPENILLKHHGRSSTKVIDFGSSCFEYQKLYTYIQSRFYRAPEIILGSRYSTPIDIWSFGCILAELLTGQPLFPGEDEGDQLACMMELLGMPPPKLLEQSKRAKYFINSKGIPRYCSVTTQADGRVVLVGGRSRRGKKRGPPGSKDWGTALKGCDDYLFIEFLKRCLHWDPSARLTPAQALRHPWISKSVP
On to B1, for which the “in vitro kinase assay with gamma-33P-ATP, radioactive band on Phosphorimager” value in series [1] is “There is a radioactive band that migrates at the same position as the EID-1 protein in the western blot while this band is absent in the vector alone lane”.

B2: recombinant hDYRK3 (SEQ ID NO: 2) as used in Example 4 (protein)
chain: MGGTARGPGRKDAGPPGAGLPPQQRRLGDGVDTFMMIDETKCPPCSNVLCNPSEPPPPRRLNMTTEQFTGDHTQHFLDGGEMKVEQLFQEFGNRKSNTIQSDGISDSEKCSPTVSQGKSSDCLNTVKSNSSSKAPKVVPLTPEQALKQYKHHLTAYEKLEIINYPEIYFVGPNAKKRHGVIGGPNNGGYDDADGAYIHVPRDHLAYRYEVLKIIGKGSFGQVARVYDHKLRQYVALKMVRNEKRFHRQAAEEIRILEHLKKQDKTGSMNVIHMLESFTFRNHVCMAFELLSIDLYELIKKNKFQGFSVQLVRKFAQSILQSLDALHKNKIIHCDLKPENILLKHHGRSSTKVIDFGSSCFEYQKLYTYIQSRFYRAPEIILGSRYSTPIDIWSFGCILAELLTGQPLFPGEDEGDQLACMMELLGMPPPKLLEQSKRAKYFINSKGIPRYCSVTTQADGRVVLVGGRSRRGKKRGPPGSKDWGTALKGCDDYLFIEFLKRCLHWDPSARLTPAQALRHPWISKSVPRPLTTIDKVSGKRVVNPASAFQGLGSKLPPVVGIANKLKANLMSETNGSIPLCSVLPKLIS
As for B2, the “in vitro kinase assay with 33P-ATP, then LC-ES MS/MS of the Asp-N digest” value in series [2] is “there was a radioactive band that migrated at the same position as the EID-1 protein following electrophoresis”.

B3: human DYRK2 (SEQ ID NO:6) with an N-terminal HIS6-tag (protein)
chain: MNDHLHVGSHAHGQIQVQQLFEDNSNKRTVLTTQPNGLTTVGKTGLPVVPERQLDSIHRRQGSSTSLKSMEGMGKVKATPMTPEQAMKQYMQKLTAFEHHEIFSYPEIYFLGLNAKKRQGMTGGPNNGGYDDDQGSYVQVPHDHVAYRYEVLKVIGKGSFGQVVKAYDHKVHQHVALKMVRNEKRFHRQAAEEIRILEHLRKQDKDNTMNVIHMLENFTFRNHICMTFELLSMNLYELIKKNKFQGFSLPLVRKFAHSILQCLDALHKNRIIHCDLKPENILLKQQGRSGIKVIDFGSSCYEHQRVYTYIQSRFYRAPEVILGARYGMPIDMWSLGCILAELLTGYPLLPGEDEGDQLACMIELLGMPSQKLLDASKRAKNFVSSKGYPRYCTVTTLSDGSVVLNGGRSRRGKLRGPPESREWGNALKGCDDPLFLDFLKQCLEWDPAVRMTPGQALRHPWLRRRLPKPPTGEKTSVKRITESTGAITSISKLPPPSSSASKLRTNLAQMTDANGNIQQRTVLPKLVS
Regarding B3, the “in vitro kinase assay with gamma-33P-ATP, radioactive band on Phosphorimager” value in series [1] was “There is a radioactive band that migrates at the same position as the EID-1 protein in the western blot while this band is absent in the vector alone lane”.
